Results reported in article PMC5849717.
Like-named read-outs stand apart in the source and are kept apart here. Blank lines part the entries; values can stand above or below the substance they belong to.

Experiments:
[1] = molecular target: FLAG-mYFP-β2AR (β2-adrenergic receptor), total receptor pulled down with anti-FLAG (mouse) (UniProt P18762); assay: single-molecule pulldown (SiMPull) with photobleaching step analysis; lysates (10 mM Tris pH 7.9, 0.1% DDM, 150 mM NaCl, 2 mM EDTA) of cells expressing mYFP-tagged receptor, untreated or ISO 5 min; captured on slides by biotinylated anti-FLAG or by phospho-specific β2AR antibodies with biotinylated secondary IgG; TIRF; bleaching steps of mYFP counted; percent dimer calculated assuming 75% active mYFP
[2] = molecular target: FLAG-mYFP-β2AR (β2-adrenergic receptor), total receptor pulled down with anti-FLAG (mouse) (UniProt P18762); assay: single-molecule pulldown (SiMPull) with two-colour co-localisation; FLAG-mYFP-β2AR and FLAG-mCherry-β2AR co-expressed 1:1 in HEK293, ISO-treated; lysate pulled down with anti-FLAG or phospho-specific antibodies; mCherry and mYFP spots within 1 pixel (~150 nm) counted as co-localised; overlap = co-localised mYFP / total mYFP; reference mCherry-mYFP fusion gives 58.8% overlap
[3] = molecular target: PKA-phosphorylated β2AR (FLAG-mYFP-β2AR pulled down with anti-pS261/262) (mouse) (UniProt P18762); assay: single-molecule pulldown (SiMPull) with photobleaching step analysis; lysates (10 mM Tris pH 7.9, 0.1% DDM, 150 mM NaCl, 2 mM EDTA) of cells expressing mYFP-tagged receptor, untreated or ISO 5 min; captured on slides by biotinylated anti-FLAG or by phospho-specific β2AR antibodies with biotinylated secondary IgG; TIRF; bleaching steps of mYFP counted; percent dimer calculated assuming 75% active mYFP
[4] = molecular target: PKA-phosphorylated β2AR (FLAG-mYFP-β2AR pulled down with anti-pS261/262) (mouse) (UniProt P18762); assay: single-molecule pulldown (SiMPull) with two-colour co-localisation; FLAG-mYFP-β2AR and FLAG-mCherry-β2AR co-expressed 1:1 in HEK293, ISO-treated; lysate pulled down with anti-FLAG or phospho-specific antibodies; mCherry and mYFP spots within 1 pixel (~150 nm) counted as co-localised; overlap = co-localised mYFP / total mYFP; reference mCherry-mYFP fusion gives 58.8% overlap
[5] = molecular target: GRK-phosphorylated β2AR (FLAG-mYFP-β2AR pulled down with anti-pS355/356) (mouse) (UniProt P18762); assay: single-molecule pulldown (SiMPull) with photobleaching step analysis; lysates (10 mM Tris pH 7.9, 0.1% DDM, 150 mM NaCl, 2 mM EDTA) of cells expressing mYFP-tagged receptor, untreated or ISO 5 min; captured on slides by biotinylated anti-FLAG or by phospho-specific β2AR antibodies with biotinylated secondary IgG; TIRF; bleaching steps of mYFP counted; percent dimer calculated assuming 75% active mYFP
[6] = molecular target: GRK-phosphorylated β2AR (FLAG-mYFP-β2AR pulled down with anti-pS355/356) (mouse) (UniProt P18762); assay: as above; remark: listed apart in the source
[7] = molecular target: GRK-phosphorylated β2AR (FLAG-mYFP-β2AR pulled down with anti-pS355/356) (mouse) (UniProt P18762); assay: single-molecule pulldown (SiMPull) with two-colour co-localisation; FLAG-mYFP-β2AR and FLAG-mCherry-β2AR co-expressed 1:1 in HEK293, ISO-treated; lysate pulled down with anti-FLAG or phospho-specific antibodies; mCherry and mYFP spots within 1 pixel (~150 nm) counted as co-localised; overlap = co-localised mYFP / total mYFP; reference mCherry-mYFP fusion gives 58.8% overlap

Sequence of PKA-phosphorylated β2AR (FLAG-mYFP-β2AR pulled down with anti-pS261/262), P18762 1-418 (receptor; phosphoserine at 261/262; phosphoserine at 261/262; other documents disagree on this pair) (P18762 whole entry): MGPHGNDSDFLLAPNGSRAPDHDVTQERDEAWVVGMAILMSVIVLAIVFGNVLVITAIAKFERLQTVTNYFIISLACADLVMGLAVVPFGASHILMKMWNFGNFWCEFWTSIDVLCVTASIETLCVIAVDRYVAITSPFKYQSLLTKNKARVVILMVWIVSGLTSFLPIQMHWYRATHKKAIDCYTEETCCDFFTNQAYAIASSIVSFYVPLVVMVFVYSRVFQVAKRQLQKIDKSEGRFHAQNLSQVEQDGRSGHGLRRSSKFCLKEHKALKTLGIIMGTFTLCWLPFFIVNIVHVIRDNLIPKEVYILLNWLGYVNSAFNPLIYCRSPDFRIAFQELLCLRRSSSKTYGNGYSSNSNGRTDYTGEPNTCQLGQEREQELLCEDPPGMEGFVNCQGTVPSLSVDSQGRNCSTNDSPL
Sequence of FLAG-mYFP-β2AR (β2-adrenergic receptor), total receptor pulled down with anti-FLAG, P18762 1-418 (receptor; other documents disagree on this pair) (P18762 whole entry): as above
Sequence of GRK-phosphorylated β2AR (FLAG-mYFP-β2AR pulled down with anti-pS355/356), P18762 1-418 (receptor; phosphoserine at 355/356; phosphoserine at 355/356; other documents disagree on this pair) (P18762 whole entry): as above

percent dimers [1]: 42.7% | stoichiometry N [1]: 2 | percent overlap between mYFP and mCherry copies [2]: 13.2%
Substance: FLAG-mYFP-β2AR (β2-adrenergic receptor), total receptor pulled down with anti-FLAG, P18762 1-418 (receptor; other documents disagree on this pair)

percent dimers [3]: 68.8% | stoichiometry N [3]: 2 | percent overlap between mYFP and mCherry copies [4]: > 20.4%
Substance: PKA-phosphorylated β2AR (FLAG-mYFP-β2AR pulled down with anti-pS261/262), P18762 1-418 (receptor; phosphoserine at 261/262; phosphoserine at 261/262; other documents disagree on this pair)

percent dimers [5]: 12% | percent monomers [5]: 88% | percent monomers [6]: 86.5% | percent overlap between mYFP and mCherry copies [7]: < 3.2%
Substance: GRK-phosphorylated β2AR (FLAG-mYFP-β2AR pulled down with anti-pS355/356), P18762 1-418 (receptor; phosphoserine at 355/356; phosphoserine at 355/356; other documents disagree on this pair)
